Key:
[1] = target: T1, Lck (Homo sapiens, UniProt P06239); assay: Millipore radiometric kinase activity assay, Lck (h); type: biochemical
T1 construct: purchased Millipore (assay service)
Description: A commercial radiometric assay service (Millipore, Billerica, Mass.) was used to test the specificity and potency of peptides containing a coupled transduction domain and therapeutic domain, hereinafter “complete peptides”). In these assays, if the kinase is not inhibited by an inhibitor peptide, a positively charged substrate is phosphorylated with a radiolabeled phosphate group from an ATP. […] The reaction is initiated by the addition of the MgATP mix. […] IC50 values for inhibitor peptides were determined using Millipore's IC50Profiler Express service. The IC50 value was estimated from a 10-point curve of one-half log dilutions. […] In both assays, compounds were supplied in dimethylsulfoxide (DMSO). Every kinase activity measurement was conducted in duplicate. Therapeutic inhibitor peptides were assayed for activity against human kinases related to MK2, cell viability, or human disease. […] Error is reported as the standard deviation between 2 samples, and “c” is rat AMPK whereas all other kinases used are human kinases.

[2] = target: T2, Rsk2 (Homo sapiens, UniProt P51812); assay: Millipore radiometric kinase activity assay, Rsk2 (h); type: biochemical
T2 construct: purchased Millipore (radiometric assay service)
T2 sequence (P51812 whole entry): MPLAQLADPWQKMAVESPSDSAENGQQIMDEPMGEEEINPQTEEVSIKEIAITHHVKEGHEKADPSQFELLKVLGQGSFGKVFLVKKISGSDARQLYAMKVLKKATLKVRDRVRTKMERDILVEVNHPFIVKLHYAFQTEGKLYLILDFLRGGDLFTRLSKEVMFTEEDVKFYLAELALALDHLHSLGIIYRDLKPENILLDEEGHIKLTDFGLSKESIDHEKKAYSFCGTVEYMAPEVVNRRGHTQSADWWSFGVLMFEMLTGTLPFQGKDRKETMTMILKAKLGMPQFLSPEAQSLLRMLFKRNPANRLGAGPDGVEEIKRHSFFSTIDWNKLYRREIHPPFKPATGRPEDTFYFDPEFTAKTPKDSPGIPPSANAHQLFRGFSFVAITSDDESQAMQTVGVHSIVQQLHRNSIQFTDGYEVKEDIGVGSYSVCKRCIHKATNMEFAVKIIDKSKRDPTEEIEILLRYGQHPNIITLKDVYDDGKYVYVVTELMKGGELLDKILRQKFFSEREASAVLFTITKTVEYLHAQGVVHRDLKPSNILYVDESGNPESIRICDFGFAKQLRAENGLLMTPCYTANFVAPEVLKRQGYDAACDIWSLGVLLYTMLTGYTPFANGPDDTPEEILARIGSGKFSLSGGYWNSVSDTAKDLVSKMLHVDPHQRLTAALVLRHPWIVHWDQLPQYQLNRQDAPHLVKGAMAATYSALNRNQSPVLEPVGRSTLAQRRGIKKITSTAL
Description: (§1) A commercial radiometric assay service (Millipore, Billerica, Mass.) was used to test the specificity and potency of peptides containing a coupled transduction domain and therapeutic domain, hereinafter “complete peptides”). In these assays, if the kinase is not inhibited by an inhibitor peptide, a positively charged substrate is phosphorylated with a radiolabeled phosphate group from an ATP.
In a final reaction volume of 25 μL, Rsk2 (h) (5-10 mU) is incubated with 8 mM MOPS pH 7.0, 0.2 mM EDTA, 30 μM […] [SEQ ID NO: 64], 10 mM MgAcetate and [γ-^33P-ATP] (specific activity approx. 500 cpm/pmol, concentration as required). The reaction is initiated by the addition of the MgATP mix. After incubation for 40 minutes at room temperature, the reaction is stopped by the addition of 5 μL it of a 3% phosphoric acid solution. 10 μL, of the reaction is then spotted onto a P30 filtermat and washed three times for 5 minutes in 75 mM phosphoric acid and once in methanol prior to drying and scintillation counting.
(§2) IC50 values for inhibitor peptides were determined using Millipore's IC50Profiler Express service. The IC50 value was estimated from a 10-point curve of one-half log dilutions. For peptides tested for specificity, the concentration of the peptides that inhibited approximately 95% of MK2 activity was chosen to profile against a battery of kinases related to MK2, cell viability, or human disease from MilliporeKinaseProfiler service. In both assays, compounds were supplied in dimethylsulfoxide (DMSO). Every kinase activity measurement was conducted in duplicate.
Therapeutic inhibitor peptides were assayed for activity against human kinases related to MK2, cell viability, or human disease. The assays were performed using concentrations of therapeutic inhibitor peptides that yielded 2% to 8% of normal MK2 activity. Error is reported as the standard deviation between 2 samples, and “c” is rat AMPK whereas all other kinases used are human kinases.

[3] = target: T3, Tie2 (Homo sapiens, UniProt Q02763); assay: Millipore radiometric kinase activity assay, Tie2 (h); type: biochemical
T3 construct: purchased Millipore (radiometric assay service)
T3 sequence (Q02763 23-1124): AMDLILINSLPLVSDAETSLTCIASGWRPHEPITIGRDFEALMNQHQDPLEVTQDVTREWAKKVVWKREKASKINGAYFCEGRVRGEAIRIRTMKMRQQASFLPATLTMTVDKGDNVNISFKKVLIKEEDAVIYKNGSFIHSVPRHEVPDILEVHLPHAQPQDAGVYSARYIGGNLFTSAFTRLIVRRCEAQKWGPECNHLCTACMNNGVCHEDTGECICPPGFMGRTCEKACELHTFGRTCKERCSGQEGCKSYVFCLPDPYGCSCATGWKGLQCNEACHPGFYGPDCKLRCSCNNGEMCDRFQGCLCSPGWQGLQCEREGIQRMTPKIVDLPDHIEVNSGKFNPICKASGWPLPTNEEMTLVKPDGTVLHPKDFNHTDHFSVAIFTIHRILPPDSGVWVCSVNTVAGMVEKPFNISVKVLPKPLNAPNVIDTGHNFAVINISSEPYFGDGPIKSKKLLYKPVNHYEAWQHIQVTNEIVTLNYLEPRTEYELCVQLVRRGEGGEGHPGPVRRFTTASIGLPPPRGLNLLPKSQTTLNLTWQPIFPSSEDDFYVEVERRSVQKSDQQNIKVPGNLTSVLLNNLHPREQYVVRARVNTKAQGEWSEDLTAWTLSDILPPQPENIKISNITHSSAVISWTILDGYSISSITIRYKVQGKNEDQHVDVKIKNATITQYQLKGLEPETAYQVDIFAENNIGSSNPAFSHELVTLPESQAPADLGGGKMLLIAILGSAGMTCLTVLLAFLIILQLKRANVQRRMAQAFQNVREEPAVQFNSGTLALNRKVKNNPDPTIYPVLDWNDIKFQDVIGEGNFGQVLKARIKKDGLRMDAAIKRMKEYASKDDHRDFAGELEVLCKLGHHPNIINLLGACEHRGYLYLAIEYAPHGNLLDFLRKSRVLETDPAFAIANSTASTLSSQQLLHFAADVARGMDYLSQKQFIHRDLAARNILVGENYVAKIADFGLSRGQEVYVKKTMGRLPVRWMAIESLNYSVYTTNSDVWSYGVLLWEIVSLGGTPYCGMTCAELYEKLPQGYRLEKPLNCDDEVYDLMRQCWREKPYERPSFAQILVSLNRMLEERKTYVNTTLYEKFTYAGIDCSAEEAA
Description: as §1
In a final reaction volume of 25 μL, Tie2 (h) (5-10 mU) is incubated with 8 mM MOPS pH 7.0, 0.2 mM EDTA, 0.5 mM MnCl2, 0.1 mg/mL poly(Glu, Tyr) 4:1, 10 mM MgAcetate and [γ-^33P-ATP] (specific activity approx. 500 cpm/pmol, concentration as required). The reaction is initiated by the addition of the MgATP mix. After incubation for 40 minutes at room temperature, the reaction is stopped by the addition of 5 μL of a 3% phosphoric acid solution. 10 μL of the reaction is then spotted onto a Filtermat A and washed three times for 5 minutes in 75 mM phosphoric acid and once in methanol prior to drying and scintillation counting.
IC50 values for inhibitor peptides were determined using Millipore's IC50Profiler Express service. The IC50 value was estimated from a 10-point curve of one-half log dilutions. […]

[4] = tested on: 10 Human Kinases; assay: Specificity of complete inhibitor peptide variants on 10 human kinases; type: biochemical; conditions: Table 5
Description: as §1, §2
Additional therapeutic inhibitor peptide variants were assayed for activity against several human kinases representative of several families of kinases. […]

[5] = target: MK2 (Homo sapiens, UniProt P49137); assay: Omnia fluorescence-based kinase activity assay for MAPKAP-K2 (reaction velocity); type: biochemical; set-up: purchased Invitrogen; conditions: 100 μM peptide; percentage change in MK2 reaction velocity versus unsubstituted KALNRQLGVAA at 100 μM; SD of three samples
MK2, sequence (P49137 whole entry): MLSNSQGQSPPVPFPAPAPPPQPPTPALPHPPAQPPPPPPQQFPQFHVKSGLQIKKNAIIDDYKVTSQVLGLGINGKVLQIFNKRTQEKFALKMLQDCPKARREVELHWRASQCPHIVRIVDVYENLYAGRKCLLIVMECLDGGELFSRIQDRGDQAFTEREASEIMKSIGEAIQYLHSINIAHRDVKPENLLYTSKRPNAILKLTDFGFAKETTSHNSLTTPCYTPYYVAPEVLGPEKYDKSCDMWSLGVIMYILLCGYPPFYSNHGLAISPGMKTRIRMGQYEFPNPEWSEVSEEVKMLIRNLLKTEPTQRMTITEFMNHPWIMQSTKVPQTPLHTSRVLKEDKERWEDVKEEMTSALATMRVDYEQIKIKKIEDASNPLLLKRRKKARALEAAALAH
Description: The Omnia® Kinase Assay for MAPKAP-K2 kit (Invitrogen, Carlsbad, Calif.), was used to determine the reaction velocity for MK2 in the presence and absence of each of the peptides listed in Table 1. The kit contains a proprietary reaction buffer to which the following were added (final concentrations are given): 1 mM ATP, 0.2 mM DTT, 10 μM MAPKAP-K2 Sox-modified peptide substrate, 5 ng MK2, and the inhibitor peptide of interest (final volume of 50 μL). Human MK2 was purchased from Invitrogen. The reactions were performed at 30° C. in the wells of a low-protein-binding 96-well plate provided with the kit, and fluorescence readings (excitation=360 nm, emission=485 nm) were taken every 30 seconds for 20 minutes using a SpectraMax M5 Spectrophotometer (Molecular Devices). Reaction velocity was determined for each reaction well from the slope of a plot of relative fluorescence units versus time. Each inhibitor peptide was tested at least at four concentrations, 12.5, 25, 50 and […], in triplicate.
In Table 1, “a” represents that the results shown are for 100 μM for all peptides; “b” represents the percentage change in MK2 reaction velocity versus the unsubstituted peptide ([…]) [SEQ ID NO: 13] at a concentration of 100 μM; “c” represents the error reported as the standard deviation between three samples.

[6] = tested on: IL-1β expression in rat primary cortical astrocyte cultures; conditions: 1 mM or 3 mM MK2i with TNF-α 5 or 10 ng/ml; 18-22 hours
Description: Primary rat astrocytes were isolated from embryonic day 18 Sprague Dawley rat cortices. […] Briefly, the rat cortexes were triturated with a 1 ml pipet aid until most of the large cortex pieces were dispersed. After larger tissue fragments were allowed to settle, the supernatant was collected, in a 15 ml conical tube, and pelleted by centrifugation at 1100 rpm for 1 minute. The resulting supernatant was discarded and the pellet resuspended in neurobasal media (10% horse serum, 3 mM glutamine). The astrocytes then were seeded in the petri dishes and grown until they were confluent (80-95%) after which time they were passed. Astrocytes were passed 1:4, grown to 80-95% confluency, then rinsed twice with PBS. Different treatment types were applied to each corresponding petri dish for 18-22 hours. There was a total of 1 ml of media (neurobasal media with 10% horse serum, 3 mM glutamine) plus treatment in each petri dish. […]
After 18-22 hours, the cells were rinsed with PBS, scraped into a small centrifuge tube using a lysis buffer (8 M urea, 4% CHAPS, 10 mM DTT), and disrupted by using a Disruptor Genie™ (Scientific Industries, Bohemia, N.Y.) for 2 hours. The cells were pelleted by centrifugation at 17 krpm for 15 minutes, the supernatant (cell lysate) collected and the total protein concentration quantified (Pierce BCA Protein Assay kit, Thermo Fisher Scientific, Rockford, Ill.).

[7] = tested on: IL-1β induced IL-6 expression in mesothelial cells (CRL-9444); assay: IL-6 ELISA, mesothelial cells induced with IL-1β; type: cell-based; conditions: IL-1β 1 ng/ml
Description: A cell line of pleural mesothelial cells (CRL-9444) was purchased from American Type Culture Collection. Cells were maintained and seeded in Medium 199 with Earle's BSS and 0.75 mM L-glutamine (Mediatech, Inc., Manassas, Va.), 1.25 g/L sodium bicarbonate (Sigma, St. Louis, Mo.), 3.3 nM epidermal growth factor (MBL International, Woburn, Mass.), 40 nM hydrocortisone (Sigma), 870 nM insulin (MBL International), 20 mM HEPES (Sigma), trace elements mixture B (Mediatech, Inc.), 10% fetal bovine serum (FBS) (Hyclone, Waltham, Mass.) and 1% penicillin/streptomycin (Mediatech, Inc.). Prior to treating cells with therapeutic inhibitor peptides, cells were allowed to acclimate in serum-free media consisting of only Medium 199 with Earle's BSS. L-glutamine, sodium bicarbonate, HEPES, trace elements mixture B, and penicillin/streptomycin (concentrations and suppliers as above) for 24 hours prior to treatment with cytokines and/or inhibitor peptides. […] For all cell culture experiments, the cell-penetrating MK2 inhibitor peptide sequence [sequence] [SEQ ID NO: 11] was used.
IL-6 analysis was performed with a IL-6 ELISA kit (PeproTech, Inc., Rocky Hill, N.J.). Briefly, the plate was prepared as follows. The capture antibody (antigen-affinity purified goat anti-hIL-6+2.5 mg D-mannitol) was diluted with phosphate buffered saline (PBS) to a concentration of 1 μg/ml and added to the each well of the plate. The plate was sealed and incubated at room temperature overnight. The wells then were aspirated to remove liquid, and washed 4 times using wash buffer (300 μl per well of 0.05% Tween-20 in PBS). After the last wash, the plate was inverted to remove residual buffer, and blotted on a paper towel. Block buffer (300 μl per well of 1% BSA in PBS) was added, the plate incubated for at least 1 hour at room temperature, aspirated and washed 4 times.
Standards (from 2 ng/ml to zero) and samples were prepared in diluent, immediately added to each well in triplicate, and incubated at room temperature for at least 2 hours on a plate shaker adjusted to 300 rpm. […] Following the incubation, the plate was aspirated, washed 4 times, avidin-horse radish peroxidase (HRP) conjugate added ((5.5 μl:10994.5 μl diluent) (100 μl) to each well, incubated for 30 minutes at room temperature on a plate shaker adjusted to 300 rpm, aspirated, and washed 4 times. To each well then was added ABTS Liquid Substrate Solution (Sigma) (100 μl). The plate was incubated at room temperature for color development on a plate shaker adjusted to 300 rpm. Absorbance was measured at 405 nm and 650 nm (650 nm was the wavelength correction subtracted from each 405 nm measurement) using a Spectramax M5 Microplate Reader (Molecular Devices) every 5 minutes for 50 minutes. Hoeschst 33342 nuclear stain (Invitrogen) was used to quantify cell number on the basis of DNA quantity. All results were run in triplicate and normalized to cell number.
One-way ANOVA analyses were used to determine statistically significant increases or decreases in parameters of interest. Significant differences were analyzed with Tukey HSD post hoc comparisons. A significance level of α=0.05 was used in cytokine analyses.
Mesothelial cells were incubated with IL-1β (1 ng/ml) (to induce IL-6 expression) and/or different concentrations of therapeutic inhibitor peptide. The commercially available protein kinase inhibitor Rottlerin was introduced as an inhibitor of both MK2 and PRAK.

[8] = tested on: IL-6 expression in triple culture of neurons, astrocytes and microglia; conditions: 1 mM or 3 mM MK2i with TNF-α 5 or 10 ng/ml
Description: The inhibitory effect of therapeutic inhibitor protein having amino acid sequence [sequence] [SEQ ID NO: 11] on IL-6 production was studied in a triple culture consisting of neurons, astrocytes and microglia. […] The E18 cells were plated (1×10^6 cells/ml) to support differentiation into neurons, astrocytes and microglia. […] The positive control comprised treating the cells with TNF-α (either 5 ng/ml or 10 ng/ml); as a negative control, the cells were exposed to cell media without any treatment. […] Cytokines with or without therapeutic inhibitor peptide were always added simultaneously in this media formulation.

T1 sequence (P06239 whole entry): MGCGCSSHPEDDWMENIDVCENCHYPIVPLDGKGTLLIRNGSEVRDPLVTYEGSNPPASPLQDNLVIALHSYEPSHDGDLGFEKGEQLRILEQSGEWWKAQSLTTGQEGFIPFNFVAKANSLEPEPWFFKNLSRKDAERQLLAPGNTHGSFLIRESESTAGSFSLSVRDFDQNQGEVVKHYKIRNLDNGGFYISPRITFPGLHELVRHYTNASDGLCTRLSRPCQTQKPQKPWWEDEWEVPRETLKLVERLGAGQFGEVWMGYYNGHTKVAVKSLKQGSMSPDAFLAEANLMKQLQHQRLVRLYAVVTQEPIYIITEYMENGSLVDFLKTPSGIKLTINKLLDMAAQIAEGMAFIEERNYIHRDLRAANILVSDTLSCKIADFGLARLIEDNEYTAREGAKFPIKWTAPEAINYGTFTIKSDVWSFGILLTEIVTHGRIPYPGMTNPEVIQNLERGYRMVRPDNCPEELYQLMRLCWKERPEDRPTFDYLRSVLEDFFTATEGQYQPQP

Sequence | Lck Kinase Activity (%) (+SD %) ([1]; peptide 100 μM) | Rsk2 Kinase Activity (%) (+SD %) ([2]; peptide 100 μM) | Tie2 Kinase Activity (%) (+SD %) ([3]; peptide 30 μM) | Tie2 Kinase Activity (%) (+SD %) ([3]; peptide 100 μM) | specificity among therapeutic inhibitor peptides (in words) [4] | Lck Kinase Activity (%) (+SD %) ([1]; peptide 30 μM) | Rsk2 Kinase Activity (%) (+SD %) ([2]; peptide 30 μM) | percent change in MK2 reaction velocity versus unsubstituted peptide [5] | level of expression of IL-1β (FIG. 10) [6] | IL-1β induced IL-6 expression (FIG. 7) ([7]; different concentrations of peptide) | time at which significant reduction of IL-1β induced IL-6 expression occurs ([7]; peptide 3 mM) | IL-1β induced IL-6 expression (FIG. 7) ([7]; peptide 3 mM (highest concentration)) | level of expression of IL-6 (FIG. 11) [8]
KAFAKLAARLYRKALARQLGVAA | 847 (29) % | 6 (1) % | – | – | – | – | – | – | – | – | – | – | –
WLRRIKAWLRRIKALNRQLGVAA | 493 (7) % | −1 (1) % | 17 (1) % | 0 (0) % | least specificity | 130 (1) % | 14 (5) % | −132(10) % | – | – | – | – | –
YARAAARQARAKALARQLGVAA | – | – | – | – | – | – | – | – | able to inhibit | inhibited | 6 h | significantly reduced | reduced levels of expression of IL-6
